Paper PMC6684798, “Structural basis for the target specificity of actin histidine methyltransferase SETD3” (Nature Communications, 2019)

Columns and labels:
SETD3 N255A = target: T1, SETD3 N255A (Homo sapiens, UniProt Q86TU7, N256A); assay: Steady-state kinetics of SETD3 N255A on K73(66–88) (Fig. 3c; pH 10.5, 37 °C, [N255A] = 90 nM, 40 µM SAM); type: biochemical; conditions: relative to WT SETD3, Fig. 3c
T1 construct: GST (cleaved yes); made in house; host or cells: Escherichia coli BL21(DE3) CodonPlus
T1 sequence (Q86TU7 1-594 N256A): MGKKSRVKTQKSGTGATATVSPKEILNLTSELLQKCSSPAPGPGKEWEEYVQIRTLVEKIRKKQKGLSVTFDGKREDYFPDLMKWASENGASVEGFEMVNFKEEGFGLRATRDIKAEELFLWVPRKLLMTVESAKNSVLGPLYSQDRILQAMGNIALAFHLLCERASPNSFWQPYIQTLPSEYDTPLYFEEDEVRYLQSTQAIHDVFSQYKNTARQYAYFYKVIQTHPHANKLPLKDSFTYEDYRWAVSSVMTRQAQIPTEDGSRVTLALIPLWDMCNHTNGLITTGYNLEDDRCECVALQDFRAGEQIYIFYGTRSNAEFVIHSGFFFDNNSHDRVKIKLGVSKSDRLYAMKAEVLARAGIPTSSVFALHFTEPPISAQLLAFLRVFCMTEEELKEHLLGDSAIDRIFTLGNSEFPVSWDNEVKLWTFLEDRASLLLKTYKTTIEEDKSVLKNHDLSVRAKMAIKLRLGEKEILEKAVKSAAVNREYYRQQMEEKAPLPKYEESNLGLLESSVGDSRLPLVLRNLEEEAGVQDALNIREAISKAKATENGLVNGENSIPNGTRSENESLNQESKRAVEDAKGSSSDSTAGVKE
Protocol: (§1) Fig. 3 Kinetics of SETD3 on H73 and K73 peptides. a Comparison of activities of three variants (WT, N255A, and N255V) on H73(66–80) peptide. The assays were performed at room temperature (~22 °C) and pH 8.0 using [WT] = 0.18 μM, [N255A] = 0.18 μM, and [N255V] = 0.72 μM. b Comparison of SETD3 WT activities on two K73 peptides (residues 66–80 and 66–88). The assays were performed at 37 °C and pH 10.5 using [WT] = 3 and 15 μM, respectively, for the long and short peptides. c Comparison of activities of three variants (N255A, N255V, and WT) on K73(66–88) peptide. The assays were performed at 37 °C and pH 10.5 using [N255A] = 90 nM, [N255V] = 0.72 μM and [WT] = 4 μM. Data represent the mean ± SD of N number of independent determinations (N = 3 for the WT and N = 2 for the mutants) performed in duplicate. […]
(§2) Recombinant human SETD3 (pXC2003) was expressed as a GST-fusion[22] in Escherichia coli BL21(DE3) CodonPlus^TM cells (Stratagene). […]
(§3) A reaction mixture contained 20 mM Tris/HCl (pH 8.0) or 20 mM glycine/NaOH (pH 10.5), 50 mM NaCl, 0.1 mg/ml BSA, 1 mM DTT, 0.18–15 µM SETD3 (as indicated in Fig. 3), 40 µM SAM and varying concentration of peptides. […] The dependence of the velocity of product formation per enzyme on substrate concentration was analyzed according to the Michaelis–Menten equation.

[1] = test system: SETD3 variants (WT, N255A, N255V); assay: Comparison of activities of SETD3 variants (Fig. 3a, c); type: biochemical, human; conditions: Fig. 3c, K73(66–88), pH 10.5, 37 °C
Protocol: as §1, §2, §3

K73(66–88): K73-containing actin H73K peptide, residues 66–88 (TLKYPIEKGIVTNWDDMEKIWHH; UniProt P60709 66-88, looked up, variant H73K)
activity of N255A on K73 peptide (SETD3 N255A): significantly enhanced activity
order of activity of SETD3 variants on K73 [1]: N255A≫N255V>WT
